Source: publication PMC5378476, “Mechanism of ribosome rescue by ArfA and RF2” (eLife, 2017)

Target: T1, release factor RF2 (E. coli K12, UniProt P07012 1-365)
T1 construct: Peptide chain release factor RF2, E. coli K12 strain; SPF motif at 205-207, GGQ motif at 250-252, switch loop aa 315-323; source: purified as described (Korostelev et al., 2008; Laurberg et al., 2008)
T1 sequence: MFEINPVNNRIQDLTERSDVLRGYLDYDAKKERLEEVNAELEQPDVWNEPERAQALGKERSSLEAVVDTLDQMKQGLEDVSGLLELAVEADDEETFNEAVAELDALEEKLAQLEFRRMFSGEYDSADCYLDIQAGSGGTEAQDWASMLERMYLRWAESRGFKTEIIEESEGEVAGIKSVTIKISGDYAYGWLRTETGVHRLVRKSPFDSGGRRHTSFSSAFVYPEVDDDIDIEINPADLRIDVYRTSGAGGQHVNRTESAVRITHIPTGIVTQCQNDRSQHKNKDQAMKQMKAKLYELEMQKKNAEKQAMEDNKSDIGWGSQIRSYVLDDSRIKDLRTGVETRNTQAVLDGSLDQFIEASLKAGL
Assay: cryo-EM structure; 70S•mRNA•tRNAfMet•ArfA•RF2 complex reconstituted in vitro from 30S and 50S subunits, mRNA truncated after the P-site AUG; 20 mM Tris-HCl pH 7.0, 100 mM NH4Cl, 20 mM MgCl2, 0.5 mM EDTA, 6 mM βME; on grids ~0.45 µM 70S, 10 µM ArfA, 10 µM RF2; two classes (Structure I, compact RF2; Structure II, extended RF2) from one dataset
Settings: both partners purified

binding result: binds
B1: ArfA (alternative rescue factor A) (natural protein, E. coli, UniProt P36675 1-60, looked up)
chain: MSRYQHTKGQIKDNAIEALLHDPLFRQRVEKNKKGKGSYMRKGKHGNRGNWEASGKKVNH
notes: ArfA, E. coli, gene from the ASKA Clone(-) library; the forward primer starts at the first ATG of the gene after the His6 codons, the reverse primer ends at the codon of residue 60; The natural protein is longer than 60 residues; the construct is cut short at the C-terminus; No density for the His6 tag in the maps; source: E. coli BLR/DE3, pET24b+, purified (Ni-NTA, ion exchange, size exclusion); …
